Results reported in article PMC11140114 (2024).

Biological target: recombinant human dynamin-related protein 1 (Drp1), isoform 1 (human, UniProt O00429 1-736)
Test: BLI

Chain of recombinant human dynamin-related protein 1 (Drp1), isoform 1 (O00429 whole entry, canonical isoform): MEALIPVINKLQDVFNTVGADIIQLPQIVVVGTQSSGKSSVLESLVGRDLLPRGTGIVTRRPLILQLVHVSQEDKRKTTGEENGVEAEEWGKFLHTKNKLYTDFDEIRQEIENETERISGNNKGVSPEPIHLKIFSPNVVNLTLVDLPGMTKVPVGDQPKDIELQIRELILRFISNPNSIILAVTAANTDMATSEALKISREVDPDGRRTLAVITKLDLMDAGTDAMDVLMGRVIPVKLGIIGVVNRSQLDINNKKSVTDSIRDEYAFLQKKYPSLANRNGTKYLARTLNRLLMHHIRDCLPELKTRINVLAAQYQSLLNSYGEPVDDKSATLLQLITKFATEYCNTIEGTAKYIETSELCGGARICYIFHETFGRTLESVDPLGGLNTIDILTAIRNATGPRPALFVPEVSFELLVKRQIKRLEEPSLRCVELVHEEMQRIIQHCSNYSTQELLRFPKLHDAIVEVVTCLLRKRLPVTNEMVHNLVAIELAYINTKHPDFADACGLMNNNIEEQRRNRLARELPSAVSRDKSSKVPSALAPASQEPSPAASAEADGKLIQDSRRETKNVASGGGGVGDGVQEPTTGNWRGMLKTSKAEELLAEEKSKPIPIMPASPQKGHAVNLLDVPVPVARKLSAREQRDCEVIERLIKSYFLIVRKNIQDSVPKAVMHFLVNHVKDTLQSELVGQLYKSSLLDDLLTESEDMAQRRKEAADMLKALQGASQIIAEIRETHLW

koff [s⁻¹] | Binder
0.000117 | Drp1-specific nanobody D7 (VHH, biotinylated for BLI (site not stated); covalently immobilised on NHS-activated sepharose via primary amino groups of accessible lysines for the nanotrap) VHH: QVQLVESGGGLVQPGGSLRLSCVASGFDFSTYSMTWHRQVLGKERELVASITPGGSRTNVADSVKGRFTISRDNAKNMLYLQMDRLKPEDTGMYYCAQGGYYAEPDYWGKGTRVTVSS
0.000227 | Drp1-specific nanobody D63 (VHH, biotinylated for BLI (site not stated); covalently immobilised on NHS-activated sepharose via primary amino groups of accessible lysines for the nanotrap) VHH: QVQLVESGGDLVQPGGSLKLSCAVSGVSDSLSSFYLMAWHRQAPGKQREMIADIVSGKATYADSVKGRFTISRDNAENTAYLQMNSLKPEDTAVYYCNVLIQNRSTFQSYWGQGTQVTVSS
